Assay results taken from a protein production outcome set (Wang et al. 2014).

Assay: label from the status in PepcDB records

Sequence | protein production
MITRNAPRHALLGLILAGSLGTFVALPAVADNAAPAEQGQTTPALGSNLQTLKELDGKAPARRALNIQTWNTAEGARVLFVESRELPMFDMRLTFAAGSSQDQKSPGIALLTNAMLNEGVKGKDVNAIAQGFEGLGADFSNGSYRDMAVTSLRSLSAADKRDPALKLFSEVVGKPTFPADSLARIKNQLIASFKTQKQNPGAIASKELFNHLYGDHPYAHPSEGDAKSINAITLAQLKAFHAKGYAAGNAVIALVGDLSRDEAQAVAAQVSASLPKGPALAKVADPVEPKAGTTHIEFASNQTHLMLAQLGIDRNDPDYAALTVGNSVLGGGGFGSRLMTEVREKRGLTYGVSSGFTAMQVAGPFMIGLQTRAEMSENTLKLVQDIVRDFLANGPTQKEIDDVKRELTGSFPLTAASNSAIVGQLGAIGFYNLPLTYLEDYMAAAQSVTVEQVKAAMSKHLSADKMVIVTVGPTVEQKPLPAPTDKPTRQPVGVPEH | failed
MITSIARQSIILKCLRQKSVLVSNYELYYTAGLAKKCFGIAVDADMEPKQLLEELQKHIDKVSPADEQEKYLIHLLGNYEPDDTHDEQTVELFHMGETEEHIWQVSIT | not failed
MITSLPDNYSPQRQIPIKPDITFVHVRLAHFIAMGAGIGLIRYMPGTAGTIAAFPFYRFLDSIIEPVSLLLIIDVFFIMGIWACAVTGRALNSPDHSGMVWDEIVAFMLVLFFTPDHWTWQLAAFFLFRFFDIVKPAPIGYLDARLKGGLGVMLDDLLAAFYTLLCLAGWKSMVLFESYF | failed
MITVSIVSHGQSTLVEQLLADLVRLDMSMVTEVLVTLNIPEDISSKPGDYPYPVRILRNTAARGFGANHNAAFRQAEGEWFCVMNPDIRLINNPFPILIEEGAYDSAGVIAPMVVTPSGMIEDSVRCFPVLTSLAAKLFGHGDGRYLFAAGDEAFAADWVAGMFMLFRTEDFRAVGGFDEGFFLYYEDVDICARLWKSGRSVLACPKASVIHDARRSSRRNLRYMKWHALSLIRYFWKHWGRLPQTPEQLEHHHHHH | not failed
MIVLALDVYEGERAIKIAKSVKDYISMIKVNWPLILGSGVDIIRRLKEETGVEIIADLKLADIPNTNRLIARKVFGAGADYVIVHTFVGRDSVMAVKELGEIIMVVEMSHPGALEFINPLTDRFIEVANEIEPFGVIAPGTRPERIGYIRDRLKEGIKILAPGIGAQGGKAKDAVKAGADYIIVGRAIYNAPNPREAAKAIYDEIRGV | not failed
MIVPGGFPAPVTGSAVAASPPLPTVRLLSLDAHGRVLDWINWQDAACLYARDAVSWTLGEPCMQIHGGVSRLTGERSVLELHPIIAARGHARSRALDPTPTLTNTALFARDSQLCMYCGQHFSRPHLTRDHVMPVSKGGRDSWENVVTACFQCNSRKANRTPQQAHMPLLAVPYRPSWIEHLILSNRNILSDQMAFLRAQLPKRSKLSLLEHHHHHH | failed
MIVTLLAVGAAAAVGAVARYMLDQYVQYRSPGLFPLGTWLINVTGSFVLGLLVGLGARHGLPEQFVPIAGVGFCGAYTTFSTFSYELVHLREKGQVRKSLLYGASSLTAGLLAAAAGLAVESF | failed
MIYFIRKKKWLKQLEKGEAMKYAILIGDGMADYPIEKLGNRTILQAARTPAMDSIAARGRAGLAKTVPDSFPPGSDVANMSILGYDPATYYSGRAPLEAASMGVALAADDVAFRCNLITTEHGMIKDYSAGHISSDEAEILIDTLDYELSTENIRFYPGISYRHLIVAGNNLGAETECTPPHDITGEKIDKYLPRGKDGEFFSELIEASKVVLELHPVNLKRVEEGKNPANSIWVWGQGYAPKFTAFMKLYGKKGAVISAVDLLKGIGIYAGLDVIEVHGATGYLDTNYEGKVRAAIEALKTRDLVFVHVEAPDEAGHEGSIEKKLKAVEDFDSRIVAPILEYAENSDEPFTILVLPDHPTPISVKTHTRDPIPFAIYRTDKPETDNVEAFDEESVKNGSMGLVKASDLIGILIKSLEHHHHHH | not failed
MIYFTGDTHFADPRVLRIDRRPFPDMASHDVTLIRNWNEIVDAQDDIWHLGDFMSFRGGDCDQLLSMLNGRKHLIIGNNDPSTTTEATGWASVQHYSEMTLDDHLLILCHYPFRTWNKMGRKSINLHGHSHGRLKPLPRQYDVGVDAQRLRPVSLQTLLSTKPES | failed
MIYLFTGNMGTGKTSRVVSMILNNEDGLFKMKLEDGTEVDRPLYFCHIDGLDKRQFKAHELTEEQIMSAPLRDVIPEGAVLIVDEAHYTYPVRAAGRPVPPYIQELTELRHHGHTVILMTQHPSQLDIFVRNLVSKHVHLERKAIGMKQYYWYKCVTSLDNPAGVSGVEVASWKPPKEAFKYYKSASQHQ | not failed
MIYLHAIDPIAFSLGPVKVHWYGLMYLAGFGAAWCLGRQRIQAGRLLGVNIDGFSDLLFYAMMGVVLGGRVGYMLFYAFHDFLQEPLLLFRVWEGGMSFHGGLIGVLLAVAWWSRRQRMHMFDVVDFCAPLVPVGLGFGRLGNFIGGELWGKLTHNGWGVIFPRAPLSDVPAGQLAMQDVINFVQIQEHYAAGLLGHYARHPSQLYEAFLEGLVMFIVLWLFSRKPRPRYAVSGLFALLYGVFRFLVEFVRMPDNGVYVAFGWLTRGQILSLPLIVIGLFLFWLSCRSPVLQPVPAPEVAK | failed
MIYLQNFITTTIQLNIYLILVIGLLYVIIHYYRNKGVNAFLDIYLNYIPVLTHEFGHVLFNKLAGGKAKDLVIVTSPRERKVTSQQGYAITQSKGYLGQFITTIGGYLMPPLMFLTGLVSIHYQYPSIFITIYLFIFIYYLFITSRKLSPLIVIILISSLLYLVFKQDHQWFIYDIVTLSYHFILGVLLGEILQSSWTIFRLTFQRPKPSWDGSALTKVTRVPTFIFSLVWILFNLYTVYLLIKYTIL | failed
MIYMDVYMNSYFPHNLDTENSIIDLSKWQELADLIVDIFGADCGAIIKFTGHSFTTMLSSRNEASFLHQGTEWSSDSKSFCRTIIKTGKPLYIANAVEDEYWFDAPPVVNGPVRSYCGVPIFSPDGSIYGTICAIDTKSTRYEDALTKLLLHLSKLITSDLKIAEKAEQHRLMALTDQTTGLLNRRGLNVLSEQKFKDAKRNQDHIGVLYLDIDNLKIINDNFGHLAGDKCIKLLATILKKMVRQSDLIARIGGDEFTVLALINSENTNELDHLSMRIREVYQNEIKDNAELNMSNISIGQHLVSYDSNASLKEMLAKADSLMYQEKIDKS | failed
MIYQVDGKTIVLVLEQGEDIVEAVTDIAREQNGKFGTVSGIGACSSAELNFYNLETQTYEKKLIDEPLELIGLMGNISHIDEQPFAHLHATFGTNQYETLSGHLTKAVVSATAEIIITMTNLDINRKHNETIGLNLLDLLEHHHHHH | not failed
MIYRILIVISIFMISFSGFGQTDYFKLGKEYYNNGEYEKAAATYSEVIKKEENLPKVYETYLSTLYKLKNYTEAEKIIKKMVKVGSPENYTYRIDYALFYKQQNLTDKAEKEFSAFVSDIQKNSTAVDISGAYLQKLGEYTWAKQLYLQARKNFDRYAYCFELSSIYNRLGQTENMFDELLNYLSVNPASLEEVQNTFQNELDTDEKFALFETKVYDRINKDPNDIVYNQLLLWLNLQRKNFTKAFIQAKAIDKRNRQTGTTVLEVGNIALENKDYDAAGACFQYVSDNFKESFNYSIARRLLIQTREEQIKNTFPVDKQKIVGLISDYNQLLKENGRTAYTLESLRNMALLNAFYLDKRDTAVVILKSLIENPYTDNRLRGKAKIDLGDIYLLTGEPWESTLLYSQVEKDFKEDQLGHEAKLRNAELYYYKGEFVLAQEQLDVLKLATTREISNDAIQLSVFITENSGLDSTTDALKDYSAIQLLLFQRKYDEALQAANALLKQYPHHELTDDVYWLQATILRQTGKPTEALEMLKKISTGYADDLLGDDALFTSAQIFDYDLKNTEKAMQLYQDFLIQYTNSVYVTEARKRFRILRGDKI | failed
MIYYLIGVALFIFMLEQLVPGWKLPKVSTWVARVIFLNIVQVSIALLAGITWNKWMMGHSLLHTSDALPPLLAGFAAYFVNTFVTYWWHRARHANDTLWRLFHQLHHAPQRIEVFTSFYKHPTEMVFNSLLGSFVAYVVMGISIEAGAYYIMFAALGEMFYHSNLRTPHVLGYLFQRPEMHRIHHQRDRHECNYSDFPIWDMLFGTYENPRRIDEPQGFAGDKEQQFVDMLLFRDVHSLPGKTQPAPVLVKPDVR | failed
MKAAEKYAKDVVAGKILVCKWIMLLAQRHLDDLAVSKRKDFPYKFDPAKAEKVAKFLQLLPHTKGKWGGKKQLIKLEPWQLFSVCVPFGWVRKKDGTRRYRTILVFVPRKNGKSIIGGGVGLYMFVADGEFGAEVYSGATTEKQAWEVFRPAKLMVERTDDLREHYGVDVNASNMVVLADGSRFEPVIGKPGDGSSPSCSVVDEYHEHQDSTLYDTMETGMGAREQPIMLVITTAGSSIGGPCHQLIRDSERMLEGVIDRPDLWPALYTIDQGDDWTSEIALRKANPNFGISVAEDFLLARQRDAMQSATKQATFRTKHLNEWVGAKNAWLNMLRWKEAPVRKSLAELEGRSCYGSLDLASKIDIAANLLIFPPHGDDPFWHIHARYYLPEARVLEELDSNTARYREFDALGLLTLTDGEVTDFEVIKEDMREFAGRFDIRAYAYDPWQATQLAQEMDAEGLPMVELRQTVQNLSEPMKEVEALVLQRKLAHGDCPVLTWMASNVVAKLDVKDNIYPNKERPENKIDGMVSLITGCAVAIKLGIDDSGHFDDFLASPIVVG | failed
MKAAPARSAAYDNPYAKRLFLIIDSLPQMQRALAMTLSSFGANTVEYASKASDALAKMAKYEFDVVLCDYDLGNGYDGLYLFEEIRERNLLKQSCVFMIVTGERRAQRVISAAELAPDDYLLKPFTGEVLRDRLERAMRKREAFRLVDENILRHDYLSAIETCGRKIEENGEFALDFMRLKGSLALKINDFDTARDAYMQVLRLRPATWAKMGLAKSLAGLKSHDEARLLFEAVLADNNQVMEAYDWLARLYRGNHDLGRAQHTLQTAADMSPVVFRRQQQLAQVAVLNHDLAAAEAACQQTLDIAKYTWHRSPTHYAALLRVQLARGDNGNAVRTLANLKHDYRYNEEGEWLAGVMDSQLQAKNGNADKARELLEAAGERFKQLAPKLDQESQLEYARACYQQGRDGQGNAVMEYLVRNHHDDEDMLEHFGDMFEEIGLSQAGRQLIAQNVKSVLELNNQAVREAQSGQFDAAIERFVKALDEMPQNVQIMLNLINAVLAYVSQNGWHESHMRRAYELLGKVRDTAPTNNKFQKILQSWRLLVDKMDKPQWAL | failed
MKAERPDTRKLKALKRGHIAEYRAALCLMLKGYRIVAMRYRTRLGEIDIIARRGDLVACVEVKARVSLEDAVFAVTDTAQRRIRAASDLWLSRQGDFHRLSVRYDIVAVTPWRWPRHLPDAF | failed
MKAIIMAGGQGKRLRPLTCNLPKPMMPIMQKPVLQYIIELLKKHGINEIGITLHYLPDEVMDYFGDGKELGVNIHYFIEQSPLGTAGSVRNAESFLDETFVVISGDALTDVNLTNILQYHKEKNAMVTIVLKKVTIPLEYGVAITDTEGRISNFIEKPGWGEIFSDKANTGIYVMEPGIFEFYNKDKKFDFSEELFPELLKSGKEIFGYVVNDYWRDIGNIEQFMKCNFDILNGYVDVDVDIDASQHQKGVWIGKNTIVSDNVKVIPPVYIGDNSEIRYGAEIGPFAVIGRNNIISEMATIKRSIIFENCYIGSGAELRGSVVSNNVQVGGGVSTFEESAIGTGSLVGEKSVVKAGVKIWPDKVIGSKTIIKTNVVWGENRCKVLFGKEGISGEINVELTPEFVSKLASAFASNLRMNSKVVVCSDYNLAAEMLKYSFVSGLISMGIEVYSAKEMTIPMLRFSTAYFKADAAVYIYCKGSNKEKVNILFIDKDGIMISRSMEKKIANSFLREDFRRTRANNFKRLRDFGECMGYYEDYIKENLCIQEIRNSGLKVAVSMENKLIKNEVKSIFSDLKIQYSIYDNYADLEGLKKEVIEKKMDFGVCISENCDKAIIIDENANIISTQMYESIKALILISVYKFKTIVAPVNSSKALKYIAKRYNCKYVKSKISERYILNEYILNEKDKNIKEVLFSYLSSTDALNIVINIINILARGKIKLSELMERIPNYILREKEIACSWDNKGKIMRSLIEENISKSIELIEGIKVNYEDAWVLIIPDSDEPICKIYAESNDEEKTDKIINEFESEIELFMKN | failed
